Assays:
[1] = tested on: HaCaT, NHDK, THP-1, MRC5 and HDF; experiment: H2O2 production by cells stimulated with P. acnes, overall statement for the five cell lines; type: cell-based, human; settings: pretreatment of P. acnes strains with small peptide 2.5 to 20 μM; five cell lines and three strains tested
Method: FIG. 17: Dose-dependent inhibition of H2O2 production by fibroblast pre-treated by small Fg1-generated peptides and stimulated by P. acnes. MRC5 cell were incubated for 24 h with small peptides Fg1.1 (light gray bar), Fg1.2 (horizontal line bar), Fg1.3 (hatched bar), Fg1.4 (dark gray bar), Fg1.5 (dotted bar) at concentrations ranging from 2.5 to 20 μM. Measurement of hydrogen peroxide production was realized by spectrofluorometry as described in Materials and Methods. Controls experiments were done with unstimulated MRC5 cell (white bar) and MRC5 stimulated with P. acnes (black bar). Data are means±S.D. of three separate experiments. Statistical significance is indicated by * (P<0.05), ** (P<0.01), *** (P<0.001), and **** (P<0.0001), respectively.
All cells lines (5·10^4 to 10^5 cells/well) were seeded in 96-well plates (Corning Costar, Brumath, France) and treated as previously described. After stimulation, cells were washed three times in PBS and incubated with 100 μl per wells of 5 μM DHE (for determination of O2^●−) or 5 μM H2-DCFDA (for determination of H2O2) for 30 min as described previously and fluorescence intensity was recorded every hour over a period of 5 h. Fluorescence excitation/emission maxima were for DHE: 480/610 nm and for H2-DCFDA: 507/525 nm. At the end of the experiment, the number of adherent cells was evaluated by the crystal violet assay as described below. O2^●−, and H2O2 were assayed by spectrofluorimetry on a Fusion spectrofluorimeter (PackardBell, Paris, France). Levels of ROS were calculated in each sample as follows: reactive oxygen species rate (arbitrary units/min/10^6 cells)=(fluorescence intensity [arbitrary units] at T5h—fluorescence intensity [arbitrary units] at To/300 minutes/number of adherent cells as measured by the crystal violet assay, and were expressed as arbitrary unit (A.U.).
To assess the efficacy of the small Fg1-related peptide, the production of H2O2 by several cell lines (HaCaT, NHDK, THP-1, MRC5 and HDF) stimulated by three P. acnes strains 6919, RON and PIE was measured, in presence or not with the small peptides. The amount of H2O2 produced is compared to that produced by the stimulated cells with untreated bacteria. Production baseline is obtained by measuring H2O2 on unstimulated cells. The measurement of the production of H2O2 is performed by spectrofluorimetry in the presence of specific fluorochromes directly on the monolayer cell.
Two sets of experiments have been implemented: • I) The cells are stimulated (18 h at 37° C.) by P. acnes strains previously pretreated with Fg1.1, Fg1.2, Fg1.3, Fg1.4, and Fg1.5 small peptides at the final concentrations ranging from 2.5 to 20 μM for 1 h at 37° C.; • II) The cells are pretreated first with the five small peptides at the final concentrations ranging from 2.5 to 20 μM for 24 h at 37° C. and stimulated (18 h at 37° C.) by P. acnes strains.
FIG. 17 corresponds to the results obtained with the P. acnes RON strain on the fibroblast MRCS cell line and are representative of the results obtained with all P. acnes and cells lines tested (Table 6).

[2] = tested on: Pfg; experiment: Western ligand blot with biotinylated Pfg; type: binding, Propionibacterium acnes; settings: biotinylated Pfg 0.1 μg/ml; for Recognition by biotinylated Pfg after electrophoretic separation of fibrinogen: 10 μg per lane, 10% SDS-PAGE; for Recognition of GST-fused recombinant Bß fibrinogen fragments by biotinylated Pfg: E. coli total protein after IPTG induction, 12.5% SDS-PAGE
Method: FIG. 5: Binding of P. acnes surface proteins to fibrinogen. (A) Various quantities of human fibrinogen (hFg) and bovine fibrinogen (bFg) were immobilized onto a 96-well polystyrene plate at 4° C. for 18 h and incubated with biotinylated Pfg at 0.1 μg/ml for 2 h at 23° C. Bovine serum albumin (BSA) was used as negative control. Bound material was detected by using the HRP-streptavidin conjugate. Peroxidase activity was measured by using the ABTS substrate at 405 nm. Proteins (10 μg per lane) were separated by 10% SDS-PAGE and detected by (B) Commassie blue staining, and transferred to nitrocellulose membrane and incubated with (C) HRP-streptavidine alone, and (D) biotinylated Pfg (0.1 μg/ml). Lanes 1: molecular weight standards. Lane 2: BSA. Lane 3: hFg. Lane 4: bFg.
FIG. 8: Cloning of Bß human fibrinogen fragments and binding with Pfg. (A) Cloning and expression of recombinant human Bß fibrinogen fragments Fg1, Fg2, Fg3 and Fg4. Fibrinogen fragments were obtained by RT-PCR and expression plasmids were constructed as described in Materials and Methods. (B) GST-fused proteins were expressed in E. coli, fractionated by 12.5% SDS-PAGE, and detected by Coomassie blue staining (B), and incubated with biotinylated Pfg (0.1 μg/ml) as described in Materials and Methods (C).
To characterize the interaction between P. acnes and ligands, we used biotinylated molecules in quantitative and qualitative assays. In a first set of assays, ECM ligands (fibrinogen, collagens I, IV, VI and VIII) were used as labelled proteins with biotin. In a second set of assays, P. acnes surface proteins (total extract and purified Pfg) were biotinylated. For quantitative analysis, unlabeled protein were diluted into 50 mM carbonate-bicarbonate, pH 9.6 buffer to yield a protein concentration ranging from 0.01 to 50 μg/ml, and then immobilized to 96-well polystyrene plates at 4° C. overnight. The wells were rinsed three times with 0.2 ml of PBS containing 0.05% Tween-20 (PBS-Tween). Biotinylated proteins (0.01 to 16 μg/ml in PBS-Tween) were added to the wells and incubated at room temperature for 1 h. The wells were rinsed three times with 0.2 ml of PBS-Tween. Peroxidase conjugated to streptavidin (0.5 μg/ml in PBS-Tween) was added and incubated for 30 min at room temperature. After washing, bound peroxidase was detected using the chromogenic peroxidase substrate ABTS. For qualitative analysis, unlabelled protein (10-75 μg per lane) were separated by SDS-PAGE and then transferred to nitrocellulose membranes (0.45 μm pore size), as described previously (Towbin, 1979). Membranes were then saturated overnight at 4° C. in PBS containing 5% BSA, 0.05% Tween-20 (PBT buffer). Binding activity was detected by incubating the membranes with 20 ml of PBT containing biotinylated proteins (0.1 μg/ml) for 2 h at room temperature followed by three washes with PBT. Bound biotinylated proteins were detected by incubating the membrane with peroxidase conjugated to streptavidin (0.5 μg/ml in PBT) for 1 h at room temperature. After washing, bound peroxidase activity was detected using 3,3′-diaminobenzidine in the presence of CoCl2 and H2O2 (Harlow and Lane, 1988).
Since it was shown that Pfg is recognized by fibrinogen, this ECM ligand was used to analyze the nature of this interaction. First it was analyzed the ability of fibrinogen to be recognized by purified Pfg (FIG. 5). Human and bovine Fg (hFg, bFg) were immobilized to polysterene plate and the binding activity of biotinylated Pfg was measured. […] It has been shown that fibrinogen is a glycoprotein containing both N- and O-linked glycans (Debeire 1985; Reid Townsend 1982; L'Hôte 1996). […] In parallel, deglycosylation was assessed by visualization of a shift in the mobility after electrophoresis separation and Coomassie blue staining (FIG. 6A, lanes 3 and 5) and also by using the RCA-I plant lectin able to recognize ß-linked galactosyl residues in terminal position (FIG. 6C) (Green, 1987). […]

With “YRARPAKAAATQKKVERKAPDAGGCLHADPDLGVLC (fragment Fg1.3) [small peptide generated from Fg1]” the “Inhibition of H2O2 production” value [1] was “did not”.

“NEEGFFSARGHRPLDKKREEAPSLRPAPPPISGGG (fragment Fg1.2) [small peptide generated from Fg1]” was tested, and the “Inhibition of H2O2 production” value [1] was “did not”.

“APSLRPAPPPISGGGYRARPAKAAATQKKV (fragment Fg1.5) [small peptide generated from Fg1, overlapping Fg1.2 and Fg1.3]” was tested, and the “Inhibition of H2O2 production” value [1] was “did not”.

B1: Bß subunit: sub-unit Bß of human fibrinogen, SEQ ID NO: 1 (protein)
chain: MKRMVSWSFHKLKTMKHLLLLLLCVFLVKSQGVNDNEEGFFSARGHRPLDKKREEAPSLRPAPPPISGGGYRARPAKAAATQKKVERKAPDAGGCLHADPDLGVLCPTGCQLQEALLQQERPIRNSVDELNNNVEAVSQTSSSSFQYMYLLKDLWQKRQKQVKDNENVVNEYSSELEKHQLYIDETVNSNIPTNLRVLRSILENLRSKIQKLESDVSAQMEYCRTPCTVSCNIPVVSGKECEEIIRKGGETSEMYLIQPDSSVKPYRVYCDMNTENGGWTVIQNRQDGSVDFGRKWDPYKQGFGNVATNTDGKNYCGLPGEYWLGNDKISQLTRMGPTELLIEMEDWKGDKVKAHYGGFTVQNEANKYQISVNKYRGTAGNALMDGASQLMGENRTMTIHNGMFFSTYDRDNDGWLTSDPRKQCSKEDGGGWWYNRCHAANPNGRYYWGGQYTWDMAKHGTDDGVVWMNWKGSWYSMRKMSMKIRPFFPQQ
modifications: homo sapiens; sub-unit Bbeta of fibrinogen
B1 was tested, and the “Recognition by biotinylated Pfg after electrophoretic separation of fibrinogen” value [2] was “strongly recognized”.

B2: γ subunit: γ chain of fibrinogen (protein, UniProt P02679 27-453, looked up)
Fibrinogen gamma chain: YVATRDNCCILDERFGSYCPTTCGIADFLSTYQTKVDKDLQSLEDILHQVENKTSEVKQLIKAIQLTYNPDESSKPNMIDAATLKSRKMLEEIMKYEASILTHDSSIRYLQEIYNSNNQKIVNLKEKVAQLEAQCQEPCKDTVQIHDITGKDCQDIANKGAKQSGLYFIKPLKANQQFLVYCEIDGSGNGWTVFQKRLDGSVDFKKNWIQYKEGFGHLSPTGTTEFWLGNEKIHLISTQSAIPYALRVELEDWNGRTSTADYAMFKVGPEADKYRLTYAYFAGGDAGDAFDGFDFGDDPSDKFFTSHNGMQFSTWDNDNDKFEGNCAEQDGSGWWMNKCHAGHLNGVYYQGGTYSKASTPNGYDNGIIWATWKTRWYSMKKTTMKIIPFNRLTIGEGQQHHLGGAKQVRPEHPAETEYDSLYPEDDL
In the case of B2, the “Recognition by biotinylated Pfg after electrophoretic separation of fibrinogen” value [2] is reported as “No recognition”.

B3: KLESDVSAQMEYCRTPCTVSCNIPVVSGKECEEIIRKGGETSEMYLIQPDSSVKPYRVYCDMNTENGGWTVIQNRQDGSVDFGRKWDPYKQGFGNVATNTDGKNYCGLPGEYWLGNDKISQLTRMGPTELLIEMEDWKGDKVKAHYGGFTVQNE (protein)
chain: KLESDVSAQMEYCRTPCTVSCNIPVVSGKECEEIIRKGGETSEMYLIQPDSSVKPYRVYCDMNTENGGWTVIQNRQDGSVDFGRKWDPYKQGFGNVATNTDGKNYCGLPGEYWLGNDKISQLTRMGPTELLIEMEDWKGDKVKAHYGGFTVQNE
modifications: fragment Fg3
notes: recombinant fragment of Bß sub-unit of human fibrinogen
In the case of B3, the “Recognition of GST-fused recombinant Bß fibrinogen fragments by biotinylated Pfg” value [2] is reported as “only Fg1 was recognized”.

B4: PTELLIEMEDWKGDKVKAHYGGFTVQNEANKYQISVNKYRGTAGNALMDGASQLMGENRTMTIHNGMFFSTYDRDNDGWLTSDPRKQCSKEDGGGWWYNRCHAANPNGRYYWGGQYTWDMAKHGTDDGVVWMNWKGSWYSMRKMSMKIRPFFPQ (protein)
chain: PTELLIEMEDWKGDKVKAHYGGFTVQNEANKYQISVNKYRGTAGNALMDGASQLMGENRTMTIHNGMFFSTYDRDNDGWLTSDPRKQCSKEDGGGWWYNRCHAANPNGRYYWGGQYTWDMAKHGTDDGVVWMNWKGSWYSMRKMSMKIRPFFPQ
modifications: fragment Fg4
notes: as for B3
With B4 the “Recognition of GST-fused recombinant Bß fibrinogen fragments by biotinylated Pfg” value [2] was “only Fg1 was recognized”.

Reference: patent publication US10323078B2, “Isolated peptides and fragments thereof from fibrinogen for use as drugs, particularly in skin inflammatory diseases” (Universite Paris Descartes, priority 2015, dated 2019)
